Test results as given in publication PMC4066779.

Test system: GST-DDX6 (human)
Assay: EMSA

Work on CUG-200 RNA yielded a Kd of under 0.25 µM.
